# The supplement of paper PMC10126150
# ± gives the standard deviation of the averaged measurements.
# Test system: ATP
# Experiment: switch fluorescence ratio, 500 uM ATP over buffer (Cy3 cluster intensity, sum of 5 cycles each) (fold (ratio)); higher = stronger signal-on switching upon ATP binding; sequences stand for … in TCGTCGGCAGCGTCAGATGTGTATAAGAGACAGTTTTTTTTTTTTTTTTTTTTTTTTT…TC
# Conditions: aptamer strand: ATP DNA aptamer (quencher-CACCTGGGGGAGTATTGCGGAGGAAGG + anchor), 100 nM annealed; ATP concentration: 500 uM
# Method in brief: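 Cy3-labelled switching-strand clusters on a modified Illumina MiSeq flow-cell were annealed to 100 nM quencher-labelled ATP aptamer and imaged first in selection buffer, then after 15 min with 500 uM ATP at 22 °C. NaOH stripping and re-annealing separated each of five buffer/ATP cycles, and clusters outside 100-1000 RFU were excluded. The fluorescence ratio sums target-cycle Cy3 intensity over buffer-cycle Cy3 intensity per cluster and averages it per switch-domain sequence.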
# 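Further: ATP exposure 15 min at 22 °C before imaging.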
row,Sequence,switch fluorescence ratio
1,TTCGTTGTGG,1.031 ± 0.0047
2,CGGGGGGATC,1.02 ± 0.058
3,AATGCGCATC,1.05 ± 0.023
4,TACTAAGTGG,1.05 ± 0.015
5,TTCTAGCTTG,1.01 ± 0.047
6,GCCAGGATTG,1.02 ± 0.013
7,GGGTATGGTA,1 ± 0.023
8,TGTTCGGGTT,0.99 ± 0.015
9,ATGTATGTTA,0.978 ± 0.055
10,ACGCTTGCTA,1.02 ± 0.013
11,GAGGTCATTC,0.999 ± 0.029
12,CACTAGGCTT,1 ± 0.045
13,GGGAAGTTTT,0.978 ± 0.027
14,TTTGTAAATT,1 ± 0.018
15,ACCAATTGGT,1.02 ± 0.012
16,CGTGTGGTTC,1.02 ± 0.036
17,ATCCGTAATT,2.6 ± 0.22
18,TAAAAAAGGA,1.05 ± 0.12
19,TTCACATAGC,1.05 ± 0.1
20,TGTTGAGGGG,0.964 ± 0.041
21,CTAGGGGGGA,0.997 ± 0.0052
22,GAAGAAAGAG,1.02 ± 0.022
23,TTCTTAAAAA,0.993 ± 0.026
24,CAGTTTGGGT,1.01 ± 0.081
25,GGTCCTGGGG,1.01 ± 0.039

row,Sequence,switch fluorescence ratio
1,AAGGATAGGA,1 ± 0.014
2,TAAAAACGAC,1.04 ± 0.051
3,TTCCCTGTTT,1.01 ± 0.023
4,TAGACTTTAG,1.0314 ± 0.0007
5,AATCGGGGTT,0.948 ± 0.015
6,AGGATACCGC,1.12 ± 0.048
7,GCTGACTGGT,0.9939 ± 0.001
8,GACTGCGGAG,1 ± 0.026
9,GTTGAGAGTC,0.995 ± 0.038
10,AGGTGGGTGG,1.02 ± 0.04
11,AACCTGCTCG,1.1 ± 0.02
12,TCGGGTCAGT,1 ± 0.034
13,CGGTCGTTGT,1.02 ± 0.03
14,CGGGTTTGGT,1.01 ± 0.011
15,ATCAGATTTT,0.9867 ± 0.0034
16,ACTTTCGGTT,1.003 ± 0.0023
17,TAGTCTGGT,0.999 ± 0.016
18,ATCAAAATTT,1.03 ± 0.028
19,AATTGTGCCG,1.1 ± 0.17
20,GAGTCTGGGG,0.978 ± 0.049
21,AGGGGAGTTC,1.04 ± 0.035
22,AATCGCGGCT,1.01 ± 0.029
23,CGCTCCGATG,1.26 ± 0.025
24,TATTCATCGT,0.9932 ± 0.0075
25,TTGGGGGATA,1.09 ± 0.24

row,Sequence,switch fluorescence ratio
1,ATATACTTCT,1.02 ± 0.025
2,GGGAAGTCAC,1.121 ± 0.0039
3,GGGTTGGACG,1.02 ± 0.053
4,ACGTGGGGGT,1.01 ± 0.011
5,TGCCTTATGG,0.983 ± 0.045
6,CGGGGGGTTC,1 ± 0.019
7,GCGATTAAAG,1 ± 0.014
8,CTAACTAAGG,1.015 ± 0.0095
9,GTTCTTGTTC,1.004 ± 0.0069
10,TTTAGGCAAT,3.43 ± 2.7
11,AAGGCCGTGA,1.03 ± 0.085
12,TCCATACTGG,1.004 ± 0.0073
13,CGAATTGTTT,0.962 ± 0.03
14,TATGTAGACG,1.04 ± 0.064
15,TACAGGGATC,0.993 ± 0.027
16,ATTAAGTGTT,0.984 ± 0.042
17,TCGCTCACGG,1.03 ± 0.021
18,ACTTGAAGGT,1.02 ± 0.017
19,TTATTTAGCT,1.01 ± 0.017
20,TTATTGGGGC,1.01 ± 0.03
21,GTTGGGTATT,1.01 ± 0.021
22,TCTAAATCTT,1.01 ± 0.011
23,GGGGGCAATC,2.84 ± 0.54
24,ATGCATCGGG,0.9974 ± 0.0049
25,ATAGGTATGC,1 ± 0.06

row,Sequence,switch fluorescence ratio
1,TTATTTACTA,1.04 ± 0.011
2,GCGGGCCTTT,1.015 ± 0.0066
3,GATAGGGGAA,0.978 ± 0.022
4,GAAGATAGTG,0.986 ± 0.03
5,TAAGTGTAGC,1.035 ± 0.0035
6,GGGGTTAGCT,0.987 ± 0.018
7,CACTAGAAGC,1.037 ± 0.0012
8,CGCTGTGGGC,0.988 ± 0.044
9,GTGTTGGTAG,0.984 ± 0.018
10,TGATAGGTGG,1 ± 0.028
11,ACTTTGGTGG,1 ± 0.029
12,TTAGAGGGTA,0.9736 ± 0.0085
13,GTTGTAGGGG,0.987 ± 0.024
14,CCTGGATCGG,1.09 ± 0.048
15,AGGTGGTCGG,0.966 ± 0.038
16,CACCATAGTG,1.03 ± 0.02
17,ATTTGTGAGG,0.9782 ± 0.0093
18,AATTTTAAGC,0.967 ± 0.041
19,CACTATGGTG,1.05 ± 0.066
20,CCGCACGAGT,3.73 ± 0.63
21,AGGAAAAGGG,1.14 ± 0.1
22,GTGACTTTGT,1 ± 0.023
23,TAAGGGGAGC,1.01 ± 0.03
24,TCGGCATCGG,1 ± 0.021
25,ATGATAGATA,1.004 ± 0.0047

row,Sequence,switch fluorescence ratio
1,TTTGTTACTT,1.01 ± 0.021
2,GGGCAGTTTT,0.991 ± 0.023
3,ACACGGGCCT,1.03 ± 0.062
4,AATCTGTCCT,1.04 ± 0.027
5,TAATGGTCTT,1.02 ± 0.14
6,CTGGGGGAGT,1 ± 0.012
7,GTGACCCCTA,1.13 ± 0.063
8,CTTGTATACG,0.9888 ± 0.001
9,TTGTAAACGA,1.01 ± 0.042
10,TACTTGTCGG,0.985 ± 0.025
11,TGAAGGATGG,1 ± 0.027
12,TACTATTTGT,1.04 ± 0.063
13,AGGGCCAGGT,1.11 ± 0.023
14,ATGTAATTCG,1.002 ± 0.0086
15,GGTTACCGGC,0.977 ± 0.079
16,CGTATTCTGT,0.9845 ± 0.0037
17,TCGGGGGCTT,0.996 ± 0.015
18,TTAAGGGGCT,1.01 ± 0.018
19,TTACTTTTGC,1.01 ± 0.065
20,ATTCGGTCGA,0.976 ± 0.039
21,TGAGTCACCT,1.16 ± 0.037
22,TCCAAAGAGG,0.997 ± 0.018
23,CGTTGGGACG,1.0042 ± 0.00087
24,TAGAATGGAA,1.02 ± 0.012
25,AGTAAGGTTT,0.985 ± 0.04

row,Sequence,switch fluorescence ratio
1,CATAGCTAGG,1.004 ± 0.0075
2,TAGCGGTTGT,0.999 ± 0.021
3,TAGCGTTTTT,0.97 ± 0.018
4,AGAGACGAAT,1.013 ± 0.0085
5,ACAGTTAAGT,1.04 ± 0.039
6,AACTTGGTTT,0.961 ± 0.056
7,AAGCTAGTTT,1 ± 0.013
8,TGCTTGTTAG,0.989 ± 0.07
9,GTGAGTAAGC,1 ± 0.0035
10,TATATCTCCG,1.12 ± 0.015
11,AGCAGATAGG,1.03 ± 0.079
12,AAAATGGGCT,0.996 ± 0.038
13,AGTAAAATGG,1.01 ± 0.038
14,ATAACTTGGG,0.994 ± 0.041
15,TGAGATAGAG,0.975 ± 0.018
16,GGGGTAGGAC,1.01 ± 0.017
17,GATTTTCTTG,1.03 ± 0.017
18,TAATCCGGTC,1.04 ± 0.094
19,GTTTGGGATA,0.992 ± 0.034
20,TTTTCCAAAT,1.02 ± 0.024
21,TTTTAGTCAT,1.01 ± 0.014
22,ACATAGATTT,1.03 ± 0.029
23,TTGGCGAGGG,1.008 ± 0.0081
24,GGGAGCAAGG,1.1 ± 0.018
25,CTAAAATGCT,1.042 ± 0.0088

row,Sequence,switch fluorescence ratio
1,GCGAAATTAA,0.997 ± 0.018
2,TACAGGGGGA,1.09 ± 0.14
3,CTGGGTATGT,0.959 ± 0.027
4,GTTAAGAAAG,1.01 ± 0.012
5,AAAGCCGAAT,0.99 ± 0.023
6,GGATATACGT,1.01 ± 0.017
7,GAGGGGTGCG,1.01 ± 0.025
8,GGGAAGGTCT,0.994 ± 0.03
9,TCCGGTTGCA,2.49 ± 0.12
10,TATTCTCGAC,1.01 ± 0.013
11,GAGGAACCGG,1.05 ± 0.021
12,GCGTGATAGA,1.04 ± 0.017
13,CTAGGTGCAA,1.19 ± 0.091
14,AAGTGCAAAC,1.53 ± 0.73
15,GTATTATTTT,0.979 ± 0.024
16,TTTAGTTATT,0.998 ± 0.017
17,ATTTGAAGTA,1.01 ± 0.04
18,AGGGGGCATC,1.01 ± 0.07
19,TAAAAGGTGA,0.99 ± 0.029
20,GGGCCAGTTG,1.0149 ± 0.00024
21,GAATAAATTT,1.02 ± 0.069
22,CTGGCAGAAA,1.02 ± 0.043
23,AAGGGGGTAG,1.01 ± 0.032
24,TTTGGCCTAC,1.01 ± 0.02
25,GAGGGGTCCA,0.974 ± 0.021

row,Sequence,switch fluorescence ratio
1,TTAAGTACGG,1.3 ± 0.016
2,TATTTACGGG,0.9931 ± 0.0065
3,TTTTCACCGT,1.06 ± 0.027
4,ATAGCACGTT,1.03 ± 0.025
5,GATGATTCTG,1.001 ± 0.0056
6,CGAGGTGAAG,0.9922 ± 0.0049
7,TACTAGGGGA,1.004 ± 0.0034
8,GTTATACGAA,1.028 ± 0.0085
9,TGCGAGGGGA,1.01 ± 0.032
10,CTCTGTGGAC,2.11 ± 0.27
11,TTTAGTGCAT,1.03 ± 0.034
12,TACGGCGCGA,1.39 ± 0.58
13,AGGAATAAGT,1.11 ± 0.16
14,ACATACTTTA,1.32 ± 0.015
15,AAGGGGGTTG,0.975 ± 0.044
16,ATTAGGAAAG,0.998 ± 0.028
17,TTGGAAGTC,1.04 ± 0.026
18,TGGTTTACCA,0.9936 ± 0.0041
19,AGGGGAGTCG,0.987 ± 0.021
20,GCTTAAGGGC,0.956 ± 0.033
21,ACGGGTCCGG,1.02 ± 0.011
22,TAAGAAGGTC,1.01 ± 0.054
23,TTGGTAAAGA,1 ± 0.013
24,TTGTATTTGG,1.02 ± 0.043
25,AATAATGTTC,0.9805 ± 0.0071
